Reference: patent US20240343835A1, “COVALENT HETEROBIVALENT ANTIBODY INHIBITORS AND LIGANDS” (UNIVERSITY OF NOTRE DAME DU LAC, priority 2015, published 2024)
Ends that are not written are not given here.

How the values were obtained:
[1] = biological target: Trastuzumab (anti-HER2/neu IgG); experiment: fluorescence quenching, ligand titrated into 30 nM trastuzumab
[2] = biological target: Trastuzumab (anti-HER2/neu IgG); experiment: fluorescence quenching: ligand titrated into trastuzumab, F/F0 against Ligand (nM)
[3] = biological target: Trastuzumab (anti-HER2/neu IgG); experiment: fluorescence quenching
[4] = biological target: Trastuzumab (anti-HER2/neu IgG); experiment: fluorescence quenching, ligand titrated into 30 nM trastuzumab; apparent Kd
[5] = biological target: Trastuzumab (anti-HER2/neu IgG); experiment: method not stated in the legend
[6] = biological target: Trastuzumab (anti-HER2/neu IgG); experiment: flow cytometry on HER2-expressing cells, FITC signal of cHBL-tagged trastuzumab

B1: Trast-DNP (Trastuzumab binding peptide tagged with DNP) (peptide)
peptide: LLGPYELWELSH
modifications: not fully specified (C-terminus); also: DNP attached via EG2 spacer, attachment site not given here
Kd [1]: 200 nM | EC50 (read off the curve) [2]: 200 nM

B2: Trast-Napht-DNP (peptide)
peptide: LLGPYELWELSH
modifications: also: DNP attached via EG2 spacer, 2-naphthaleneacetic acid attached via ethylene glycol spacer, attachment sites not given here
fold increase in observed affinity against the peptide without napht [3]: > 4 fold | Kd [4]: 46.6 nM | EC50 (read off the curve) [2]: 50 nM

B3: Trastuzumab binding peptide … (peptide)
peptide: LLGPYELWELSH
Kd [5]: 1200 nM

B4: Trast-cHBL (Peptide-…) (peptide)
peptide: LLGPYELWELSH
modifications: also: 5(6)-carboxyfluorescein via EG2 spacer, EG6x2 spacer on peptide, branching Lys with 2-naphthaleneacetic acid on alpha-amine and EG4-isothiocyanate on epsilon-amine, attachment sites not given here
percent of maximum FITC signal at 1 µM cHBL [6]: 50%
